According to patent US20050250700A1 (BRACCO SUISSE, published 2005):
Bridge positions count the residues as written; N and C are the ends. Side chains are listed from the residue outwards. Ends that are not written are not given here. I, II: the chains in the order shown. * marks the point of attachment. Biotin = O=C1N[C@H]2[C@H](CS[C@H]2CCCCC(=O)*)N1; AEEA = NCCOCCOCC(=O)O

How the values were obtained:
[1] = target: T1, KDR (VEGFR-2), full-length receptor on cells (human, UniProt P35968 20-1356); test: 3.33 nM peptide mix/neutravidin-HRP complex on 293H cells
T1 construct: whole, on cells; the assay field tells which cells; also called KDR-expressing cells
Procedure: Peptide stock solutions were stored at −20C, whereas the Neutravidin HRP stock solution was stored at −80C. […] Fresh peptide/neutravidin HRP complexes were prepared for each experiment.
(§1) After incubation at room temperature, plates were transferred to 4C for another half-hour incubation. Subsequently, cells were washed five times with ice-cold M199 media and once with ice-cold PBS (in that order). After the final wash, 100 μL of ice cold TMB solution (KPL, Gaithersburg, Md.) was added to each well and each plate was incubated for 30 minutes at 37C in an air incubator.

[2] = target: T2, chimeric fusion of Ig Fc region with human KDR (human, UniProt P35968 20-764); test: SPR; form of KDR not stated there
T2 construct: bought, carrier-free; also called KDR-Fc; KDR Fc fusion; not shown: Ig Fc region

[3] = target: T1, KDR (VEGFR-2), full-length receptor on …; test: cell-based or functional assay
[4] = target: T1, KDR (VEGFR-2), full-length receptor on …; test: competitor 125I-VEGF (300 pM) on KDR-transfected 293H cells; peptide 30 µM
Procedure: (§2) Preparation of 30 μM and 0.3 μM peptide solution in 300 pM ¹²⁵I-labeled VEGF: For each 96 well plate, 10 mL of 300 pM ¹²⁵I-labeled VEGF in M199 medium was prepared at 4° C. Each peptide solution (3 mM, prepared as described above) was diluted 1:100 and 1:10000 in 300 μl of M199 media with 300 pM ¹²⁵I-labeled VEGF to prepare 30 μM and 0.3 μM peptide solutions containing 300 pM of ¹²⁵I-labeled VEGF. Once prepared, the solutions were kept on ice until ready to use. The dilution of peptides in M199 media containing 300 pM ¹²⁵I-labeled VEGF was done freshly for each experiment.
(§3) To calculate the specific binding to KDR, the binding of ¹²⁵I-labeled VEGF to mock-transfected cells was subtracted from KDR-transfected cells.

[5] = target: T1, KDR (VEGFR-2), full-length receptor on …; test: competitor 125I-VEGF (300 pM) on KDR-transfected 293H cells; peptide 0.3 µM
Procedure: as §2, §3

[6] = target: T1, KDR (VEGFR-2), full-length receptor on …; test: saturation binding of peptide/neutravidin-HRP complex, KDR- minus mock-transfected 293H cells
Procedure: as §1, with “4° C.” for “4C”, “5” for “five”, “μl” for “μL”, “cat. # 50-76-00)” for “Gaithersburg, Md.)”, “37° C.” for “37C”
Therefore, absorbance on the Y-axis of FIG. 1 is differential absorbance (KDR minus mock) and not the absolute absorbance.

[7] = target: T2, chimeric fusion of Ig Fc region with …; test: BIAcore steady state, KD1, KDR-Fc 1600 RU
[8] = target: T2, chimeric fusion of Ig Fc region with …; test: BIAcore steady state, KD1, KDR-Fc 3000 RU
Procedure: (§4) The heterodimer was tested for binding to KDR-Fc using Biacore, and an affinity constant was determined as follows.
(§5) All samples were injected in duplicate. […] Following a 10 minute dissociation, any remaining peptide was stripped from the KDR surface with a quickinject of 50 mM NaOH+1 M NaCl for 12 s at 75 μL/min. Sensorgrams were analyzed using BIAevaluation software 3.1 and a hyperbolic double rectangular regression equation in SigmaPlot 6.0.

[9] = target: T2, chimeric fusion of Ig Fc region with …; test: BIAcore steady state, KD1, KDR-Fc 6000 RU
Procedure: as §4, §5

[10] = target: T2, chimeric fusion of Ig Fc region with …; test: BIAcore steady state, KDAV, KDR-Fc 1600 RU
Procedure: as §4, §5

[11] = target: T2, chimeric fusion of Ig Fc region with …; test: BIAcore steady state, KDAV, KDR-Fc 3000 RU
Procedure: as §4, §5

[12] = target: T2, chimeric fusion of Ig Fc region with …; test: BIAcore steady state, KDAV, KDR-Fc 6000 RU
Procedure: as §4, §5

[13] = target: T2, chimeric fusion of Ig Fc region with …; test: BIAcore steady state at the higher immobilization densities
Procedure: as §5

T2 sequence (P35968 20-764, change not shown): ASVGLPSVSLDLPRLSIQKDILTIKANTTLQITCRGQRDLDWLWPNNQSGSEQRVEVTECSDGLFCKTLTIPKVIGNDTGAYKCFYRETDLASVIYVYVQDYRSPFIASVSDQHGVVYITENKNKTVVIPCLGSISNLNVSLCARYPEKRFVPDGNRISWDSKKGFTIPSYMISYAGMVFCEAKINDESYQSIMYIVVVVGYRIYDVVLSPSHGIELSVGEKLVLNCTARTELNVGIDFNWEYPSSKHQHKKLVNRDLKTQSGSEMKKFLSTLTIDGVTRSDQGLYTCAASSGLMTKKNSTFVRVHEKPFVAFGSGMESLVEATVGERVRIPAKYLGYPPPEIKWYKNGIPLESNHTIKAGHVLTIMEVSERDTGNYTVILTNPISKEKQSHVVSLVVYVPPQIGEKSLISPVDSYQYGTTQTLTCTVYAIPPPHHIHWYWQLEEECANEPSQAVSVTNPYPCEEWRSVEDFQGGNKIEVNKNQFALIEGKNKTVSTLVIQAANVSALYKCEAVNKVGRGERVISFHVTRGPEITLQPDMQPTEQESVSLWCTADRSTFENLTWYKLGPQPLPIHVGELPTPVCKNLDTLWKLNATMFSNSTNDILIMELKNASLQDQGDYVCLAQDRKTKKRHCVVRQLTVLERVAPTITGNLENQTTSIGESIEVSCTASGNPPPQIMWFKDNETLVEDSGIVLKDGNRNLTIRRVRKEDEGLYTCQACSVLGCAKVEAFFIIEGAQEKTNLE
T1 sequence (P35968 20-1356): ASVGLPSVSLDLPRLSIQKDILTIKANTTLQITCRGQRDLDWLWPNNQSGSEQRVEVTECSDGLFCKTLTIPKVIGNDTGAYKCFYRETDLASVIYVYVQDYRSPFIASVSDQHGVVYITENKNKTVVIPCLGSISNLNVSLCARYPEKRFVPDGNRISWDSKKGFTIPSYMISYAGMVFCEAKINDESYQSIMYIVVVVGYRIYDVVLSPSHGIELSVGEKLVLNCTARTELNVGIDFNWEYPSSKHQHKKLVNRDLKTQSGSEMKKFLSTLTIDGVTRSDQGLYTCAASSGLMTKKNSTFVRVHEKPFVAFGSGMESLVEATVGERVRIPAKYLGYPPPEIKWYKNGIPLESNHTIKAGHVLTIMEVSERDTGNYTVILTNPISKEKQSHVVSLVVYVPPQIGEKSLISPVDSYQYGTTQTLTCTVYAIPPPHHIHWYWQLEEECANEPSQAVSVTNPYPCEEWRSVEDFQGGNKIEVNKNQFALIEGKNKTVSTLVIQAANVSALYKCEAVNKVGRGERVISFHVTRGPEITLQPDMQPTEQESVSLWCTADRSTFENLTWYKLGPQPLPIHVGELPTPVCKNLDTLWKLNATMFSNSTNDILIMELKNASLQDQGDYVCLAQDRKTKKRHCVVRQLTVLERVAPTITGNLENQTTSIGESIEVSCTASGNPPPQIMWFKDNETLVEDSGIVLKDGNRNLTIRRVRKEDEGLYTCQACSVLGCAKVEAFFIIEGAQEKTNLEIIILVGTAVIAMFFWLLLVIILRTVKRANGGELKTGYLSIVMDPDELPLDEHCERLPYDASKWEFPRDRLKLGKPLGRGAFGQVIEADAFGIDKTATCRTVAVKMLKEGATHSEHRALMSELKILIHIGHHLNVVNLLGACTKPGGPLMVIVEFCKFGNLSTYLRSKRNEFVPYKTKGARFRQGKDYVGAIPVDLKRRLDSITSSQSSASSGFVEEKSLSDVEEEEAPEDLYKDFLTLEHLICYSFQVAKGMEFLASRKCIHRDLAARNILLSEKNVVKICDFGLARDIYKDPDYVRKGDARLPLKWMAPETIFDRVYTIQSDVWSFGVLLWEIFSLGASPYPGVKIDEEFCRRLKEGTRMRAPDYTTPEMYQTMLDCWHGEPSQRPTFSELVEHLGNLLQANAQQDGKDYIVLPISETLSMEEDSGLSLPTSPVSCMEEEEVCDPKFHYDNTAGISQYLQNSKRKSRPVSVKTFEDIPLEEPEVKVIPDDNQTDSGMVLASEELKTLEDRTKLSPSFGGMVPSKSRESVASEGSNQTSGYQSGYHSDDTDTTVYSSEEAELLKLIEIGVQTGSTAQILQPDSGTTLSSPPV

B1: tetrameric neutravidin-HRP complex of SEQ ID NO:294 and SEQ ID NO:264, ratio 1:3 (other)
peptide 1: Ac-GDSRVCWEDSWGGEVCFRYDPGGGK([AEEA-AEEA-Biotin])-NH2
peptide 2: Ac-AGPKWCEEDWYYCMITGTGGGK([AEEA-AEEA-Biotin])-NH2
modifications: disulfide I:6-I:16, II:6-II:13 (inferred); also: tetrameric neutravidin-HRP complex, chain ratio 1:3
notes: nominal composition
[1]
  binding result: binds

B2: dimer 28 (D28) (peptide)
peptide 1: AQEPEGYAYWEVITLYHEEDGDGGK
peptide 2: AQAFPRFGGDDYWIQQYLRYTDGGK
modifications: also: tail-to-tail heterodimer, linkage not given here
[2]
  Kd: 11 nM

B3: tetrameric neutravidin-HRP complex of SEQ ID NO:294 and SEQ ID NO:264, ratio 3:1 (other)
peptide 1: Ac-GDSRVCWEDSWGGEVCFRYDPGGGK([AEEA-AEEA-Biotin])-NH2
peptide 2: Ac-AGPKWCEEDWYYCMITGTGGGK([AEEA-AEEA-Biotin])-NH2
modifications: disulfide I:6-I:16, II:6-II:13 (inferred); also: tetrameric neutravidin-HRP complex, chain ratio 3:1
notes: nominal composition
[1]
  binding result: binds

## VCWEDSWGGEVCFRYDPGGGK (disulfide 2-12 (inferred)) [SEQ ID NO:337, monomeric free peptide]
[3]
  IC50, receptor activation assay: 1000 nM

B4: tetrameric neutravidin-HRP complex of SEQ ID NO:294 and SEQ ID NO:264, ratio 2:2 (other)
peptide 1: Ac-GDSRVCWEDSWGGEVCFRYDPGGGK([AEEA-AEEA-Biotin])-NH2
peptide 2: Ac-AGPKWCEEDWYYCMITGTGGGK([AEEA-AEEA-Biotin])-NH2
modifications: disulfide I:6-I:16, II:6-II:13 (inferred); also: tetrameric neutravidin-HRP complex, chain ratio 2:2
notes: nominal composition
[1]
  binding result: binds

## Ac-GDSRVCWEDSWGGEVCFRYDP (disulfide 6-16 (inferred)) [acetylated SEQ ID NO:294 without the modified C-terminus (SEQ ID NO:374)]
[4]
  % inhibition of 125I-labeled VEGF binding: 96.3%
[5]
  % inhibition of 125I-labeled VEGF binding: 52.3%

B5: tetrameric complex of biotinylated SEQ ID NO:294 (JJ spacer) with neutravidin-HRP (other)
peptide: Ac-GDSRVCWEDSWGGEVCFRYDPGGGK([AEEA-AEEA-Biotin])-NH2
modifications: disulfide 6-16 (inferred); also: tetrameric complex with neutravidin-HRP
notes: peptides held on neutravidin-HRP (Pierce 31001)
[6]
  Kd: 10 nM

B6: dimer 6 (D6) (peptide)
peptide 1: GDSRVCWEDSWGGEVCFRYDPGGGK
peptide 2: AGPTWCEDDWYYCWLFGTGGGK
modifications: disulfide I:6-I:16, II:6-II:13 (inferred); also: heterodimer joined by glutaric acid linkage
[3]
  IC50, VEGF-induced migration of HUVECs: ~12.5 nM
  IC50, VEGF-induced migration of HUVECs, with 100 nM Adjunct A: ~2.5 nM
[7]
  Kd: 46 nM
[8]
  Kd: 25.5 nM
[9]
  Kd: 17 nM
[10]
  Kd: 1.5 nM
[11]
  Kd: 0.665 nM
[12]
  Kd: 0.662 nM
[13]
  Kd: ~0.6 nM
